The experiment addresses T1, human FcγRIIa R131 (human, UniProt P12318).
T1 chain: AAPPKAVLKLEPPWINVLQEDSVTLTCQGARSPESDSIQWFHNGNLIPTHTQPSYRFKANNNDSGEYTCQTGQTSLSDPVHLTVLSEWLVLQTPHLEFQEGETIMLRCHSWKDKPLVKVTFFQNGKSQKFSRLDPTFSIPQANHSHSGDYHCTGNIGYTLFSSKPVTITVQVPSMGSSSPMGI
Put plainly: SPR. In general terms: SPR reads the build-up and loss of mass on a sensor chip optically.

From patent US11827699 (dated 2023) come the findings set out here.

B1: IL6R-BP223 (antibody)
chain 1: QVQLQESGPGLVKPSETLSLTCAVSGHSISHDHAWSWVRQPPGEGLEWIGFISYSGITNYNPSLQGRVTISRDNSKNTLYLQMNSLRAEDTAVYYCARSLARTTAMDYWGEGTLVTVSSASTKGPSVFPLAPSSKSTSGGTAALGCLVKDYFPEPVTVSWNSGALTSGVHTFPAVLQSSGLYSLSSVVTVPSSSLGTQTYICNVNHKPSNTKVDKKVEPKSCDKTHTCPPCPAPEYLGDDSVFLFPPKPKDTLMISRTPEVTCVVVDVSDEDGEVKFNWYVDGVEVHNAKTKPREEQYNSTYRVVSVLTVLHQDWLNGKEYKCKVSNAALPRPIEKTISKAKGQPREPQVYTLPPSRDELTKNQVSLTCLVKGFYPSDIAVEWESNGQPENNYKTTPPVLDSDGSFFLYSKLTVDKSRWQQGNVFSCSVMHEALHNHYTQESLSLSP
chain 2: not shown
The Kd is the concentration at which binding is half-saturated. Low values mean higher affinity, high ones lower affinity. As for B1, the affinity, expressed as Kd, was 600 nM.
